The experiment addresses T1, recombinant His6-tagged wild-type DJ-1 (UniProt Q99497 1-189).
T1 construct: DJ-1 (PARK7), wild type, expressed from the plasmid pET3a-His-DJ1; No removal of the His6 tag is described; The plasmid pET3a-His-DJ1 (Addgene 51488) tells the exact construct; also called PARK7; recombinant DJ-1; source: E. coli Rosetta (DE3), purified (Ni2+-NTA agarose, desalting)
T1 sequence (looked up): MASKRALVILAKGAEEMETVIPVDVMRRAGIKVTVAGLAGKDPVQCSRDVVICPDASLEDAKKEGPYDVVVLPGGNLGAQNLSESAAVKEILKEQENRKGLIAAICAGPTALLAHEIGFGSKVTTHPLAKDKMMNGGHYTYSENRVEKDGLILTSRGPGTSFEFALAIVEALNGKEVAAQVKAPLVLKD
Put plainly: pull-down; biotinylated H3 (1-18) peptide, glycated or not, incubated with recombinant DJ-1 at 4 °C for 2 h; peptide pulled down on BSA-blocked streptavidin magnetic beads, washed 3 times with 1x PBS pH 7.4, boiled; western blot with anti-DJ-1. The settings on record: both partners purified.

Ends that are not written are not given here.

B1: glycated (MGO-treated) biotinylated H3 N-terminal tail peptide (residues 1-18) (peptide, UniProt Q71DI3 2-19, looked up)
peptide: ARTKQTARKSTGGKAPRK
modifications: not fully specified (N-terminus, C-terminus); also: MGO glycation adducts, sites not given here
notes: histone H3 N-terminal tail, residues 1-18; The methods speak of 'N-terminal biotinylated H3 peptides', the results of a C-terminal biotin; also called glycated H3 tail; glycated biotin-H3 tail; source: synthetic peptide (Fmoc-SPPS, RP-HPLC purified), treated with MGO at 1:3 peptide:MGO, 37 °C, 30 min; not shown: biotin, C-terminal, kept
On to B1, for which the binding result is reported as “binds”.

The values are drawn from paper PMC6426841, “Reversible histone glycation is associated with disease-related changes in chromatin architecture” (Nature Communications, 2019).
